In article PMC11574045, “A cofactor-induced repressive type of transcription factor condensation can be induced by synthetic peptides to suppress tumorigenesis” (The EMBO Journal, 2024):

B1: ZPF91 (protein, UniProt Q96JP5 2-570, looked up)
E3 ubiquitin-protein ligase …: PGETEEPRPPEQQDQEGGEAAKAAPEEPQQRPPEAVAAAPAGTTSSRVLRGGRDRGRAAAAAAAAAVSRRRKAEYPRRRRSSPSARPPDVPGQQPQAAKSPSPVQGKKSPRLLCIEKVTTDKDPKEEKEEEDDSALPQEVSIAASRPSRGWRSSRTSVSRHRDTENTRSSRSKTGSLQLICKSEPNTDQLDYDVGEEHQSPGGISSEEEEEEEEEMLISEEEIPFKDDPRDETYKPHLERETPKPRRKSGKVKEEKEKKEIKVEVEVEVKEEENEIREDEEPPRKRGRRRKDDKSPRLPKRRKKPPIQYVRCEMEGCGTVLAHPRYLQHHIKYQHLLKKKYVCPHPSCGRLFRLQKQLLRHAKHHTDQRDYICEYCARAFKSSHNLAVHRMIHTGEKPLQCEICGFTCRQKASLNWHMKKHDADSFYQFSCNICGKKFEKKDSVVAHKAKSHPEVLIAEALAANAGALITSTDILGTNPESLTQPSDGQGLPLLPEPLGNSTSGECLLLEAEGMSKSYCSGTERVSLMADGKIFVGSGSSGGTEGLVMNSDILGATTEVLIEDSDSAGP
B2: ZNF800 (protein, UniProt Q2TB10 1-664, looked up)
Zinc finger protein 800: MPLRDKYCQTDHHHHGCCEPVYILEPGDPPLLQQPLQTSKSGIQQIIECFRSGTKQLKHILLKDVDTIFECKLCRSLFRGLPNLITHKKFYCPPSLQMDDNLPDVNDKQSQAINDLLEAIYPSVDKREYIIKLEPIETNQNAVFQYISRTDNPIEVTESSSTPEQTEVQIQETSTEQSKTVPVTDTEVETVEPPPVEIVTDEVAPTSDEQPQESQADLETSDNSDFGHQLICCLCRKEFNSRRGVRRHIRKVHKKKMEELKKYIETRKNPNQSSKGRSKNVLVPLSRSCPVCCKSFATKANVRRHFDEVHRGLRRDSITPDIATKPGQPLFLDSISPKKSFKTRKQKSSSKAEYNLTACKCLLCKRKYSSQIMLKRHMQIVHKITLSGTNSKREKGPNNTANSSEIKVKVEPADSVESSPPSITHSPQNELKGTNHSNEKKNTPAAQKNKVKQDSESPKSTSPSAAGGQQKTRKPKLSAGFDFKQLYCKLCKRQFTSKQNLTKHIELHTDGNNIYVKFYKCPLCTYETRRKRDVIRHITVVHKKSSRYLGKITASLEIRAIKKPIDFVLNKVAKRGPSRDEAKHSDSKHDGTSNSPSKKYEVADVGIEVKVTKNFSLHRCNKCGKAFAKKTYLEHHKKTHKANASNSPEGNKTKGRSTRSKALV
B3: ZNF791 (protein, UniProt Q3KP31 1-576, looked up)
Zinc finger protein 791: MDSVAFEDVSVSFSQEEWALLAPSQKKLYRDVMQETFKNLASIGEKWEDPNVEDQHKNQGRNLRSHTGERLCEGKEGSQCAENFSPNLSVTKKTAGVKPYECTICGKAFMRLSSLTRHMRSHTGYELFEKPYKCKECEKAFSYLKSFQRHERSHTGEKPYKCKQCGKTFIYHQPFQRHERTHIGEKPYECKQCGKALSCSSSLRVHERIHTGEKPYECKQCGKAFSCSSSIRVHERTHTGEKPYACKECGKAFISHTSVLTHMITHNGDRPYKCKECGKAFIFPSFLRVHERIHTGEKPYKCKQCGKAFRCSTSIQIHERIHTGEKPYKCKECGKSFSARPAFRVHVRVHTGEKPYKCKECGKAFSRISYFRIHERTHTGEKPYECKKCGKTFNYPLDLKIHKRNHTGEKPYECKECAKTFISLENFRRHMITHTGDGPYKCRDCGKVFIFPSALRTHERTHTGEKPYECKQCGKAFSCSSYIRIHKRTHTGEKPYECKECGKAFIYPTSFQGHMRMHTGEKPYKCKECGKAFSLHSSFQRHTRIHNYEKPLECKQCGKAFSVSTSLKKHMRMHNR
B4: ZSCAN10 (protein, UniProt Q96SZ4 1-780, looked up)
Zinc finger and SCAN …: MLGESVPAAVEQEQLGEVKLEEEEAVSPEDPRRPESRLRPEVAHQLFRCFQYQEDMGPRASLSRLRELCGHWLRPALHTKKQILELLVLEQFLSVLPPHLLGRLQGQPLRDGEEVVLLLEGIHREPSHAGPLDFSCNAGKSCPRADVTLEEKGCASQVPSHSPKKELPAEEPSVLGPSDEPPRPQPRAAQPAEPGQWRLPPSSKQPLSPGPQKTFQALQESSPQGPSPWPEESSRDQELAAVLECLTFEDVPENKAWPAHPLGFGSRTPDKEEFKQEEPKGAAWPTPILAESQADSPGVPGEPCAQSLGRGAAASGPGEDGSLLGSSEILEVKVAEGVPEPNPELQFICADCGVSFPQLSRLKAHQLRSHPAGRSFLCLCCGKSFGRSSILKLHMRTHTDERPHACHLCGHRFRQSSHLSKHLLTHSSEPAFLCAECGRGFQRRASLVQHLLAHAQDQKPPCAPESKAEAPPLTDVLCSHCGQSFQRRSSLKRHLRIHARDKDRRSSEGSGSRRRDSDRRPFVCSDCGKAFRRSEHLVAHRRVHTGERPFSCQACGRSFTQSSQLVSHQRVHTGEKPYACPQCGKRFVRRASLARHLLTHGGPRPHHCTQCGKSFGQTQDLARHQRSHTGEKPCRCSECGEGFSQSAHLARHQRIHTGEKPHACDTCGHRFRNSSNLARHRRSHTGERPYSCQTCGRSFRRNAHLRRHLATHAEPGQEQAEPPQECVECGKSFSRSCNLLRHLLVHTGARPYSCTQCGRSFSRNSHLLRHLRTHARETLY
B5: CDX2 (protein, UniProt Q99626 1-313, looked up)
Homeobox protein CDX-2: MYVSYLLDKDVSMYPSSVRHSGGLNLAPQNFVSPPQYPDYGGYHVAAAAAAAANLDSAQSPGPSWPAAYGAPLREDWNGYAPGGAAAAANAVAHGLNGGSPAAAMGYSSPADYHPHHHPHHHPHHPAAAPSCASGLLQTLNPGPPGPAATAAAEQLSPGGQRRNLCEWMRKPAQQSLGSQVKTRTKDKYRVVYTDHQRLELEKEFHYSRYITIRRKAELAATLGLSERQVKIWFQNRRAKERKINKKKLQQQQQQQPPQPPPPPPQPPQPQPGPLRSVPEPLSPVSSLQASVPGSVPGVLGPTGGVLNPTVTQ
B6: ZXDA (protein, UniProt P98168 1-799, looked up)
Zinc finger X-linked protein …: MEIPKLLPARGTLQGGGGGGIPAGGGRVHRGPDSPAGQVPTRRLLLPRGPQDGGPGRRREEASTASRGPGPSLFAPRPHQPSGGGDDFFLVLLDPVGGDVETAGSGQAAGPVLREEAKAGPGLQGDESGANPAGCSAQGPHCLSAVPTPAPISAPGPAAAFAGTVTIHNQDLLLRFENGVLTLATPPPHAWEPGAAPAQQPRCLIAPQAGFPQAAHPGDCPELRSDLLLAEPAEPAPAPAPQEEAEGLAAALGPRGLLGSGPGVVLYLCPEALCGQTFAKKHQLKMHLLTHSSSQGQRPFKCPLGGCGWTFTTSYKLKRHLQSHDKLRPFGCPAEGCGKSFTTVYNLKAHMKGHEQENSFKCEVCEESFPTQAKLGAHQRSHFEPERPYQCAFSGCKKTFITVSALFSHNRAHFREQELFSCSFPGCSKQYDKACRLKIHLRSHTGERPFLCDFDGCGWNFTSMSKLLRHKRKHDDDRRFMCPVEGCGKSFTRAEHLKGHSITHLGTKPFVCPVAGCCARFSARSSLYIHSKKHLQDVDTWKSRCPISSCNKLFTSKHSMKTHMVKRHKVGQDLLAQLEAANSLTPSSELTSQRQNDLSDAEIVSLFSDVPDSTSAALLDTALVNSGILTIDVASVSSTLAGHLPANNNNSVGQAVDPPSLMATSDPPQSLDTSLFFGTAATGFQQSSLNMDEVSSVSVGPLGSLDSLAMKNSSPEPQALTPSSKLTVDTDTLTPSSTLCENSVSELLTPAKAEWSVHPNSDFFGQEGETQFGFPNAAGNHGSQKERNLITVTGSSFLV
B7: ZSCAN1 (protein, UniProt Q8NBB4 1-408, looked up)
Zinc finger and SCAN …: MLPRPKAPASPRRPQTPTPSEQDADPGPASPRDTEAQRLRFRQFQYHVASGPHLALGQLWTLCRQWLRPEARSKEQMLELLVLEQFLGALPSKMRTWVQSQGPRSCREAASLVEDLTQMCQQEVLVSLDSVEPQDWSFGEEEDGKSPRSQKEPSQASELILDAVAAAPALPEESEWLETTQLQQSLHTRAEAEAPRAPGLLGSRARLPLKPSIWDEPEDLLAGPSSDLRAEGTVISSPKGPSAQRISPRRRNRNTDQSGRHQPSLKHTKGGTQEAVAGISVVPRGPRGGRPFQCADCGMVFTWVTHFIEHQKTHREEGPFPCPECGKVFLHNSVLTEHGKIHLLEPPRKKAPRSKGPRESVPPRDGAQGPVAPRSPKRPFQCSVCGKAFPWMVHLIDHQKLHTAHGHM

System: HEK293FT cells transfected with TF library
Assay: Screening of TF condensates based on fluorescent puncta
Assay type: cell-based
Conditions: Figure 1B numerical data; TF library screen, one value per transcriptional factor
Summary of the method: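 HEK293FT cells were reverse-transfected with Flag- or GAL4-tagged TF plasmids (1.6 μg/ml, PEI). After 60 h, cells were cultured 12 h with or without glucose, then fixed and immunostained with anti-Flag or anti-GAL4 and Alexa 488 secondaries. Fluorescent puncta were imaged over fifty random fields per well by high-content imaging.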

Point of comparison: B1, “Z score of condensed fraction” value -0.03316. Against it:
- B2 — higher, 3.058
- B3 — lower, -0.6142
- B4 — lower, -0.1901
- B5 — lower, -0.211
- B6 — lower, -0.8138
- B7 — higher, 1.179
